Assay results taken from PMC9482650, “Quantitative fragmentomics allow affinity mapping of interactomes” (Nature Communications, 2022).

T1: SIPA1L2, Q9P2F8
T1 sequence (Q9P2F8 945-1036, limits assumed, looked up): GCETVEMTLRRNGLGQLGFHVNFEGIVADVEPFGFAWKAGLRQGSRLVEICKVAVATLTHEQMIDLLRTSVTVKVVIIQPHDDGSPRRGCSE

T2: TJP3_3, O95049
T2 sequence (O95049 375-456, limits assumed, looked up): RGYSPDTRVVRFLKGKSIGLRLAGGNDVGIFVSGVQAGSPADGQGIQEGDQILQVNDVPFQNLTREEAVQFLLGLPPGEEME

T3: APBA1_2, Q02410
T3 sequence (Q02410 742-832, limits assumed, looked up): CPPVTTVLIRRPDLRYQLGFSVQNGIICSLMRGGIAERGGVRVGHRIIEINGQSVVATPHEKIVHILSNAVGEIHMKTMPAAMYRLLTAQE

T4: HTRA4, P83105
T4 sequence (P83105 378-476, limits assumed, looked up): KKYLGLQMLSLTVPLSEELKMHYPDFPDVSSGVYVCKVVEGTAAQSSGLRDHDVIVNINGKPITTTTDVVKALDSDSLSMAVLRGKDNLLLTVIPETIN

T5: DFNB31_1, Q9P202
T5 sequence (Q9P202 135-233, limits assumed, looked up): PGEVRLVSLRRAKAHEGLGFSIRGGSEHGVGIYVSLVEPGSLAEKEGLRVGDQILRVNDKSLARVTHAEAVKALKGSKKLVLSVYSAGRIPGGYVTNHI

T6: APBA2_1, Q99767
T6 sequence (Q99767 563-664, limits assumed, looked up): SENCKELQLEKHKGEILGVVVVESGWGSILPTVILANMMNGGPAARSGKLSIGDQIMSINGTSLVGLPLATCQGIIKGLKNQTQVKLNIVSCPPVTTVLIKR

T7: NHERF3_1, Q5T2W1
T7 sequence (Q5T2W1 4-100, limits assumed, looked up): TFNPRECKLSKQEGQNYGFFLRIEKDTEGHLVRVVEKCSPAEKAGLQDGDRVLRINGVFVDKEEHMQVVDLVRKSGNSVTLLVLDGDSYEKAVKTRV

T8: GRIP1_5, Q9Y3R0
T8 sequence (Q9Y3R0 568-668, limits assumed, looked up): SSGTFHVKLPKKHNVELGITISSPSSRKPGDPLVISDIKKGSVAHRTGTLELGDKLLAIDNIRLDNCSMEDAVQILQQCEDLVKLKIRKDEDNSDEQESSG

T9: DFNB31_2, Q9P202
T9 sequence (Q9P202 274-371, limits assumed, looked up): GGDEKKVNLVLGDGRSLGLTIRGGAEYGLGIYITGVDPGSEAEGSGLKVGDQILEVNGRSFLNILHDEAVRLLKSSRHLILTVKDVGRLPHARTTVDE

T10: LNX2_3, Q8N448
T10 sequence (Q8N448 463-564, limits assumed, looked up): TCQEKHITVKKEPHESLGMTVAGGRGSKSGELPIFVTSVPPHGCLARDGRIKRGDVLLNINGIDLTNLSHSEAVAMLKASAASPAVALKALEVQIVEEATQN

T11: LRRC7, Q96NW7
T11 sequence (Q96NW7 1440-1537, limits assumed, looked up): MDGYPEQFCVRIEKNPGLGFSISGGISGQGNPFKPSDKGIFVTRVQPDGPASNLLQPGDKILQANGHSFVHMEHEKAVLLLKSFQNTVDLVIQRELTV

T12: TIAM2, Q8IVF5
T12 sequence (Q8IVF5 885-986, limits assumed, looked up): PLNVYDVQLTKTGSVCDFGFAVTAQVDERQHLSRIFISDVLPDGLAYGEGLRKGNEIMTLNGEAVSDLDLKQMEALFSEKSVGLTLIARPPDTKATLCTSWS

T13: PDZD7_3, Q9H5P4
T13 sequence (Q9H5P4 857-944, limits assumed, looked up): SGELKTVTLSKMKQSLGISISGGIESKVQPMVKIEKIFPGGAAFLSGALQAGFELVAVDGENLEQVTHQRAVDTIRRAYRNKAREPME


What was measured:
Experiment in all cases: holdup assay
Design in all cases: key: below the threshold = too weak to quantify, mostly under pKd 3.1 to 4
Conditions in all cases: plain residues with an end cap or a label only (N-terminal biotin on a linker: ado-ado)
CASK, O14936 = molecular target: CASK, O14936
Inadl_3, Q8NI35 = molecular target: Inadl_3, Q8NI35
SIPA1L2, Q9P2F8 = molecular target: T1, SIPA1L2, Q9P2F8
TJP3_3, O95049 = molecular target: T2, TJP3_3, O95049
GIPC2, Q8TF65 = molecular target: GIPC2, Q8TF65
APBA1_2, Q02410 = molecular target: T3, APBA1_2, Q02410
HTRA4, P83105 = molecular target: T4, HTRA4, P83105
DLG1_3, Q12959 = molecular target: DLG1_3, Q12959
DFNB31_1, Q9P202 = molecular target: T5, DFNB31_1, Q9P202
APBA2_1, Q99767 = molecular target: T6, APBA2_1, Q99767
NHERF4_2, Q86UT5 = molecular target: NHERF4_2, Q86UT5
NHERF3_1, Q5T2W1 = molecular target: T7, NHERF3_1, Q5T2W1
SCRIB_1, Q14160 = molecular target: SCRIB_1, Q14160
NHERF2_2, Q15599 = molecular target: NHERF2_2, Q15599
MAST1, Q9Y2H9 = molecular target: MAST1, Q9Y2H9
GRIP1_5, Q9Y3R0 = molecular target: T8, GRIP1_5, Q9Y3R0
MAGI2_6, Q86UL8 = molecular target: MAGI2_6, Q86UL8
DLG1_2, Q12959 = molecular target: DLG1_2, Q12959
DFNB31_2, Q9P202 = molecular target: T9, DFNB31_2, Q9P202
GRIP2_6, Q9C0E4 = molecular target: GRIP2_6, Q9C0E4
LNX2_3, Q8N448 = molecular target: T10, LNX2_3, Q8N448
LRRC7, Q96NW7 = molecular target: T11, LRRC7, Q96NW7
TIAM2, Q8IVF5 = molecular target: T12, TIAM2, Q8IVF5
DLG1_1, Q12959 = molecular target: DLG1_1, Q12959
PDZD7_3, Q9H5P4 = molecular target: T13, PDZD7_3, Q9H5P4

Sequence of GRIP2_6, Q9C0E4 (Q9C0E4 648-740): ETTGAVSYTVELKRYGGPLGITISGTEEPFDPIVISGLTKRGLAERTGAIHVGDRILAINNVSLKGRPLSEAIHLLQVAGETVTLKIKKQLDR
Sequence of CASK, O14936 (O14936 487-570): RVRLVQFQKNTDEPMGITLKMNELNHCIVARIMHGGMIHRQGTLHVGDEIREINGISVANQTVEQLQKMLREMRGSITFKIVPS
Sequence of MAGI2_6, Q86UL8 (Q86UL8 1141-1229): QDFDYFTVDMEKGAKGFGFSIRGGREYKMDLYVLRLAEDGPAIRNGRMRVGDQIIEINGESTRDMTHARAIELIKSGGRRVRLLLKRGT
Sequence of NHERF2_2, Q15599 (Q15599 142-238): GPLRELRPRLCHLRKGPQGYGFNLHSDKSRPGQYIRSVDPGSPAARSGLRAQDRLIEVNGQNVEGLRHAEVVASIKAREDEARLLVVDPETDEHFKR
Sequence of GIPC2, Q8TF65 (Q8TF65 112-203): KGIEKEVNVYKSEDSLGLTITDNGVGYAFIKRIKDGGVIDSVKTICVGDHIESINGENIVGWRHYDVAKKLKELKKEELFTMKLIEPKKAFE
Sequence of NHERF4_2, Q86UT5 (Q86UT5 220-308): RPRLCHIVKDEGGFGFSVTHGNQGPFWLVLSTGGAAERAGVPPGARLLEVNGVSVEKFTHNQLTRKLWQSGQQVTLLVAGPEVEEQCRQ
Sequence of MAST1, Q9Y2H9 (Q9Y2H9 962-1065): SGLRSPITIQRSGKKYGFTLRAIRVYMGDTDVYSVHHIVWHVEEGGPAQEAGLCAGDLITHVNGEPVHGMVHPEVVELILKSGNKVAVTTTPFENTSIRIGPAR
Sequence of Inadl_3, Q8NI35 (Q8NI35 359-469): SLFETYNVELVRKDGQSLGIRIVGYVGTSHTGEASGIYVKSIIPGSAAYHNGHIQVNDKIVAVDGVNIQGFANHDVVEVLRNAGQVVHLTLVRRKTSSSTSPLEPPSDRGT
Sequence of SCRIB_1, Q14160 (Q14160 718-814): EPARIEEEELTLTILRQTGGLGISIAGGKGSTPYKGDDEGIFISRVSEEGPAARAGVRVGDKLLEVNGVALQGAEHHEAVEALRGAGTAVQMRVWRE

Binder	pKd (CASK, O14936)	pKd (Inadl_3, Q8NI35)	pKd (SIPA1L2, Q9P2F8)	pKd (TJP3_3, O95049)	pKd (GIPC2, Q8TF65)	pKd (APBA1_2, Q02410)	pKd (HTRA4, P83105)	pKd (DLG1_3, Q12959)	pKd (DFNB31_1, Q9P202)	pKd (APBA2_1, Q99767)	pKd (NHERF4_2, Q86UT5)	pKd (NHERF3_1, Q5T2W1)	pKd (SCRIB_1, Q14160)	pKd (NHERF2_2, Q15599)	pKd (MAST1, Q9Y2H9)	pKd (GRIP1_5, Q9Y3R0)	pKd (MAGI2_6, Q86UL8)	pKd (DLG1_2, Q12959)	pKd (DFNB31_2, Q9P202)	pKd (GRIP2_6, Q9C0E4)	also measured
RPGFASESKV [ADRB1, P08588]	below the threshold	below the threshold	below the threshold	below the threshold	below the threshold	3.82	below the threshold	below the threshold	4.21	below the threshold	below the threshold	4.36	3.94	below the threshold	3.66	below the threshold	below the threshold	4.49	below the threshold	below the threshold	pKd (LNX2_3, Q8N448): below the threshold; pKd (LRRC7, Q96NW7): 3.59; pKd (TIAM2, Q8IVF5): below the threshold; pKd (DLG1_1, Q12959): 3.71; pKd (PDZD7_3, Q9H5P4): 3.71
GQETPLNTFC [MAP7D2, Q96T17]	below the threshold	below the threshold	below the threshold	below the threshold	below the threshold	below the threshold	below the threshold	below the threshold	below the threshold	below the threshold	below the threshold	4.26	3.88	3.94	3.79	below the threshold	below the threshold	below the threshold	below the threshold	below the threshold	pKd (LNX2_3, Q8N448): below the threshold; pKd (LRRC7, Q96NW7): below the threshold; pKd (TIAM2, Q8IVF5): 3.62; pKd (DLG1_1, Q12959): below the threshold; pKd (PDZD7_3, Q9H5P4): 4.29
DFRHKSSFVI [JAM3, Q9BX67]	below the threshold	4.26	below the threshold	below the threshold	below the threshold	below the threshold	below the threshold	below the threshold	below the threshold	below the threshold	below the threshold	below the threshold	below the threshold	below the threshold	below the threshold	below the threshold	below the threshold	below the threshold	below the threshold	4.05	pKd (LNX2_3, Q8N448): below the threshold; pKd (LRRC7, Q96NW7): below the threshold; pKd (TIAM2, Q8IVF5): 4.02; pKd (DLG1_1, Q12959): below the threshold; pKd (PDZD7_3, Q9H5P4): 4.85
QYPGSPDSWV [PKP4, Q99569]	3.74	3.63	below the threshold	4.86	3.5	4.36	3.48	below the threshold	4.28	below the threshold	below the threshold	below the threshold	3.91	below the threshold	3.97	below the threshold	5.4	4.68	3.62	3.51	pKd (LNX2_3, Q8N448): below the threshold; pKd (LRRC7, Q96NW7): 4.97; pKd (TIAM2, Q8IVF5): below the threshold; pKd (DLG1_1, Q12959): 3.96; pKd (PDZD7_3, Q9H5P4): 4.11
